Entries after “also recorded” stand apart in the source; their conditions may differ. Values belong to the molecule of their own block, whether it stands above or below them.
Key:
MDA-MB-231 cells = assay: PAR4 induced Matrigel invasion of MDA-MB-231 cells; format: cell-based, human; conditions: AYPGKF activated MDA-MB-231 cells, FIGS. 3B and 3C
PAR4-Akt association = target: T1, PAR4-Akt association (Homo sapiens, UniProt P31749); assay: PAR4-Akt association, immunoprecipitation in HEK293 cells transfected with flg-Par4 and AYPGKF activated; format: cell-based; conditions: HEK 293T cells, wt flg-Par4, AYPGKF activation, FIG. 3D
T1 construct: FLAG; expressed in transfected cells
Experimental: (§1) Experiments shown in FIG. 3A-3C were carried out in MDA-MB-231 cells. […] Unpaired Student's t test was used. This experiment is a representative of three independent experiments performed in triplicates. […] HEK 293T cells were transfected with wt flg-Par4 followed by AYPGKF activation of PAR4. IP was performed using anti fig abs of cells treated or not with CTP4-A peptide and immunoblotting with anti-Akt abs.
FIG. 4A—PH-Akt module alone binds PAR4-C-tail but not mutant R25C. HEK 293 cells were transiently transfected with flg-Par4 construct and either with GFP-PH-Akt domain alone or GFP-R25C. IP of cell lysates following PAR4 AYPGKF activation was carried out using anti-flg abs. Detection of either Akt-PH domain alone associated with PAR4 was performed with anti-GFP. […] FIG. 4C—The PI3K inhibitor […] inhibits the binding of Akt to PAR4. Treatment of HEK 293 cells with LY294002 for various time points or not, following transient transfection with flg-Par4 and AYPGKF activation was performed. Cell lysates were immunoprecipitated with anti-flg antibodies, and anti-Akt was used to assess the association of Akt with the PAR4 C-tail. […] Amino acid residues of PAR4- and PAR2-PH binding motifs. FIG. 4E—mutations inserted into flg-Par4 generated flg-Par4MutE346A. HEK293 cells were transiently transfected with either wt flg-Par4 or flg-Par4MutE346A. IP of cell lysates following PAR4 activation was carried out using anti-flg abs. Detection of PAR4-Akt association was performed by anti Akt Abs. While association with wt Par4 is seen after 5 and 10 min AYPGKF PAR4 activation, when using flg-Par4 E346A no inhibition is seen and effective association with Akt is seen at 30 min activation. FIG. 4F—utations inserted into flg-Par4 generated flg-Par4Mut F347A and flg-Par4Mut D349A. HEK293 cells were transiently transfected with either wt flg-Par4 or flg-Par4Mut F347A or flg-Par4Mut D349A. IP of cell lysates following PAR4 activation was carried out using anti-f/g abs. Detection of PAR4-Akt association was performed by anti Akt Abs. While association with wt Par4 is seen after 5 min AYPGKF PAR4 activation, no such binding is obtained when using either flg-Par4 F347A or flg-Par4D349A.
HEK293 cells were transiently transfected with flg-Par4 followed by AYPGKF PAR4 activation in the presence and absence of PAR4c (4-4) within the range of 50 nM-150 μM. IP of cell lysates following different periods of activation was carried out using anti flg abs. Detection of Akt was performed by anti Akt abs. β-actin serves as a control gene for loading. […] Matrigel invasion before and after AYPGKF PAR4 activation and in the presence and absence of PAR4 c(4-4) inhibitor in the activated PAR4 cells. […] FIG. 8C—Histograms represent quantification of the cells/HPF invaded the Matrigel layer. […]

PAR4 and Akt = target: T2, PAR4 and Akt (Homo sapiens, UniProt P31749); assay: Inhibition of binding of PAR4 to Akt by PAR4 C-tail peptides (FIG. 3A); format: cell-based; conditions: MDA-MB-231 cells
T2 construct: endogenous in cells; host or cells: MDA-MB-231
Experimental: as §1
We evaluated the ability of these peptides to inhibit the binding of PAR4 to Akt protein. […] The PH-domain of Akt/PKB associates with PAR4. To elucidate whether Akt/PKB binds via its PH-domain, constructs of either wt Akt/PKB PH-domain were applied alone or an Akt/PKB-PH domain mutant R25C, impaired in its lipid binding capability of the Akt/PKB-PH domain. Transient transfections of flg-hPar4 and either wt GFP-PH-domain or PH-domain R25C mutant were carried out in HEK293 cells. Cells were activated by the PAR4 AYPGKF ligand for the indicated periods of time and the lysates were further processed for IP analysis. Distinct binding of GFP-Akt/PKB-PH domain module alone with the PAR4 C-tail was obtained (FIG. 4A). […] The mutant constructs (e.g., wt: YVSAEFRDKVRA; mutant F347L: YVSAELRDKVRA=PAR4MutF; mutant D349A: YVSAEFRAKVRA=PAR4MutD) were further evaluated for association with Akt/PKB. […]

[1] = target: T3, Akt/PKB (protein kinase B) (UniProt P31749 1-480, limits assumed); assay: co-IP: anti-flg IP from HEK293 cells transfected with the mutant, anti-Akt blot (FIG. 4F)
T3 construct: Endogenous Akt of human cell lines
Experimental: FIG. 4A—PH-Akt module alone binds PAR₄-C-tail but not mutant R25C. HEK 293 cells were transiently transfected with flg-Par4 construct and either with GFP-PH-Akt domain alone or GFP-R25C. IP of cell lysates following PAR₄ AYPGKF activation was carried out using anti-flg abs. Detection of either Akt-PH domain alone associated with PAR₄ was performed with anti-GFP. […] FIG. 4C—The PI3K inhibitor […] inhibits the binding of Akt to PAR₄. Treatment of HEK 293 cells with LY294002 for various time points or not, following transient transfection with flg-Par4 and AYPGKF activation was performed. Cell lysates were immunoprecipitated with anti-flg antibodies, and anti-Akt was used to assess the association of Akt with the PAR₄ C-tail. […] Amino acid residues of PAR₄- and PAR₂-PH binding motifs. FIG. 4E—mutations inserted into flg-Par4 generated flg-Par4MutE346A. HEK293 cells were transiently transfected with either wt flg-Par4 or flg-Par4MutE346A. IP of cell lysates following PAR₄ activation was carried out using anti-flg abs. Detection of PAR₄-Akt association was performed by anti Akt Abs. While association with wt Par4 is seen after 5 and 10 min AYPGKF PAR₄ activation, when using flg-Par4 E346A no inhibition is seen and effective association with Akt is seen at 30 min activation. FIG. 4F—utations inserted into flg-Par4 generated flg-Par4Mut F347A and flg-Par4Mut D349A. […]

T1 sequence (P31749 whole entry): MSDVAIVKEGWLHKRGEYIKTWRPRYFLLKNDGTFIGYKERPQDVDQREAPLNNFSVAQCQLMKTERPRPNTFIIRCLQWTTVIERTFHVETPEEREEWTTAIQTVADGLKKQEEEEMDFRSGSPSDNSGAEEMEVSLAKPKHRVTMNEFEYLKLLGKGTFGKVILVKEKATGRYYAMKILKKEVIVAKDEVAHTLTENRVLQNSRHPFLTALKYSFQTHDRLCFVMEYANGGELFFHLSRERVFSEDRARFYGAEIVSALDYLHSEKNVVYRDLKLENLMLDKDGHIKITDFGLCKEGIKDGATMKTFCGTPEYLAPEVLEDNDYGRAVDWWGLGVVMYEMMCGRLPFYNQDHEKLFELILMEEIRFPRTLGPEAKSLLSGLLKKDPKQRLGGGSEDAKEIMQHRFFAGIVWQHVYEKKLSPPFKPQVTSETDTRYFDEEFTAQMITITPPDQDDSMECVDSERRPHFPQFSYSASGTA
T2 sequence (P31749 whole entry): as above
T3 sequence (P31749 whole entry): as above

Molecule: H-DTVASKASAEGG-OH [CTP4-C, downstream PAR4 C-tail peptide]
inhibition of PAR4 induced Matrigel invasion (MDA-MB-231 cells): no effect

inhibition of PAR4-Akt association (IP) (PAR4-Akt association): not
Molecule: H-RAGLFQRSPGDT-OH [CTP4-B, downstream PAR4 C-tail peptide]
inhibition of PAR4 induced Matrigel invasion (MDA-MB-231 cells): no effect

Molecule: H-YVSAEFRDKVRA-OH [Peptide 1]
inhibition of interaction between PAR4 and Akt (PAR4 and Akt): effectively inhibited | inhibition of PAR4-Akt association (IP) (PAR4-Akt association; listed as CTP4-A): inhibited; also recorded: potently inhibits | inhibition of PAR4 induced Matrigel invasion (MDA-MB-231 cells; listed as CTP4-A): significantly inhibit; also recorded: attenuated

binding result [1]: no binding
B1: hPar4 D349A (receptor, human, UniProt Q96RI0 48-385, looked up)
chain: GYPGQVCANDSDTLELPDSSRALLLGWVPTRLVPALYGLVLVVGLPANGLALWVLATQAPRLPSTMLLMNLAAADLLLALALPPRIAYHLRGQRWPFGEAACRLATAALYGHMYGSVLLLAAVSLDRYLALVHPLRARALRGRRLALGLCMAAWLMAAALALPLTLQRQTFRLARSDRVLCHDALPLDAQASHWQPAFTCLALLGCFLPLLAMLLCYGATLHTLAASGRRYGHALRLTAVVLASAVAFFVPSNLLLLLHYSDPSPSAWGNLYGAYVPSLALSTLNSCVDPFIYYYVSAEFRAKVRAGLFQRSPGDTVASKASAEGGSRGMGTHSSLLQ
notes: whole, on cells; also called PAR4MutD; flg-Par4Mut D349A

Source: patent publication US20230331781A1, “PAR4 DERIVED PEPTIDES, ANALOGS AND USES THEREOF” (Yissum Research Development Company of the Hebrew …, priority 2019, published 2023)
